The target in this assay is T1, 人CD20 (on Raji cells) (human, UniProt P11836 1-297).
T1 construct: whole, on cells; No recombinant CD20 was used; also called Raja
T1 sequence (looked up): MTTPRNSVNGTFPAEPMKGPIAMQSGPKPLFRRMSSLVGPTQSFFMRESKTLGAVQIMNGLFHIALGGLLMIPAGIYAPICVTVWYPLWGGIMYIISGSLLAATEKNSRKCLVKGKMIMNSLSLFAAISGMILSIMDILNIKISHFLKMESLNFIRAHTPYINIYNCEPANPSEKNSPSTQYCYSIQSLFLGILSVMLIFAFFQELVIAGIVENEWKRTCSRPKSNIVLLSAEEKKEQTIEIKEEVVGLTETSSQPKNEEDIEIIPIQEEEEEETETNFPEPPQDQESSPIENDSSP
The assay is described as follows: in vitro antigen binding on Raji cells (flow cytometry).

One molecule from patent publication CN102050877A (NAT ENGINEERING RES CT OF ANTIBODY MEDICINE SHANGHAI CO LTD, dated 2011) can be followed below.

B1: 抗人CD20人源化抗体hu8E4 (hu8E4Hb/hu8E4Lb) (antibody, human IgG1, kappa, V domains shown)
VH: EVQLVESGGGLVQPGGSLRLSCAASGFTFTSYNMHWVRQAPGKGLEWIGAIYPENGDTSYNQKFKDRATLTADKSKNTAYLQMNSLRAEDTAVYYCARWHYYGNGGALDYWGQGTLVTVSS
VL: DIQMTQSPSSLSASVGDRVTITCRASGNIHNYLAWYQQKPGKAPKLLVHNAKTLPDGVPSRFSGSGSGTDFTLTISSLQPEDFATYYCQQFWSNPWTFGQGTKVEIKR
notes: LCDR1 RASGNIHNYLA, LCDR2 NAKTLPD, LCDR3 QQFWSNPWT; The expression constructs carried signal peptides; also called hu8E4VHb/hu8E4VLb
B1: the binding result was “binds”.
